T1: rat PRLR ECD-Fc fusion protein (rat, UniProt P05710 20-229)
T1 construct: extracellular domain; not shown: Fc region (captured by goat anti-human Fc)
T1 sequence (looked up): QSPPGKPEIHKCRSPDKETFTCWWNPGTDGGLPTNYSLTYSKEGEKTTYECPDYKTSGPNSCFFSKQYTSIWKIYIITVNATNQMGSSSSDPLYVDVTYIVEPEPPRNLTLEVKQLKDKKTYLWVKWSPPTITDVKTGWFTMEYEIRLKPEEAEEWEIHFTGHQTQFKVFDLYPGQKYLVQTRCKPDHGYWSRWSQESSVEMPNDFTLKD

T2: human PRLR ECD-Fc fusion protein (human, UniProt P16471 25-233)
T2 construct: not shown: Fc region (captured by goat anti-human Fc)
T2 sequence: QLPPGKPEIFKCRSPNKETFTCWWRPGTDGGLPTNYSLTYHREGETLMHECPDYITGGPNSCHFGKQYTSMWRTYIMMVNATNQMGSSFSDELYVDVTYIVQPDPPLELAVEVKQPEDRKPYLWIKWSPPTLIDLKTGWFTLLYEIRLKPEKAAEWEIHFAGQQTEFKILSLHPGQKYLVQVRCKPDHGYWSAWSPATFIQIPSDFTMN

T3: mouse PRLR ECD-Fc fusion protein (mouse, UniProt Q08501 20-229)
T3 construct: extracellular domain; not shown: Fc region (captured by goat anti-human Fc)
T3 sequence (looked up): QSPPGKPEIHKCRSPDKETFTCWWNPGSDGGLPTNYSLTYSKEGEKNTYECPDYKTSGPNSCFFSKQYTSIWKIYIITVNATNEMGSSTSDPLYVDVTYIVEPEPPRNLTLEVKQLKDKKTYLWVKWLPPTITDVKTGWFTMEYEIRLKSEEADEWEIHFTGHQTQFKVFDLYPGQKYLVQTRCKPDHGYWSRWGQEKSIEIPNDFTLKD

T4: human PRLR on cells (human, UniProt P16471 25-622)
T4 sequence: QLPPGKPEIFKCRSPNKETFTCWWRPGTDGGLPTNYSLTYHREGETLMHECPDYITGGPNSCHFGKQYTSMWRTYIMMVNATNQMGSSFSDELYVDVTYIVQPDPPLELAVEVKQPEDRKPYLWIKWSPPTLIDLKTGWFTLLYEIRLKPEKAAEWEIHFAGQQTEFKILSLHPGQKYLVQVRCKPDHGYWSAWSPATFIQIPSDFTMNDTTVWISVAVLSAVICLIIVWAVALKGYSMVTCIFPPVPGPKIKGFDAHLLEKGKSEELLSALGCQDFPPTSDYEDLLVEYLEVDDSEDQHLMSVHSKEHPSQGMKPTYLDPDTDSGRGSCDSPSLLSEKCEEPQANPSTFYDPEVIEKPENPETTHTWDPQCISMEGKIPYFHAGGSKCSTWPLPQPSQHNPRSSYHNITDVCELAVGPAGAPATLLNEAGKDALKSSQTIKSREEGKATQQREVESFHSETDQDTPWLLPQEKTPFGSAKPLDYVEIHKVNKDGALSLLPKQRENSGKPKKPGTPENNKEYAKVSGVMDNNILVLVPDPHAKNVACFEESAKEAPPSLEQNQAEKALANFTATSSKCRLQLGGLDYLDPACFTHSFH

T5: human PRLR (Biacore antigen) (human, UniProt P16471 25-234, limits assumed)
T5 construct: The construct injected over captured antibody is not described (a soluble form is likely); also called huPRLR
T5 sequence: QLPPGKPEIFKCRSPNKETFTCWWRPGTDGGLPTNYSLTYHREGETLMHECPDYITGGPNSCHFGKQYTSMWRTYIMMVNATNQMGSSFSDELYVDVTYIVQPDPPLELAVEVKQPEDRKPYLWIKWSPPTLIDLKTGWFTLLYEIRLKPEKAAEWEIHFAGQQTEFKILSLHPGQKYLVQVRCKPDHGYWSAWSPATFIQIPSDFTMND

T6: murine PRLR (Biacore antigen) (murine, UniProt Q08501 20-229, limits assumed)
T6 construct: also called muPRLR
T6 sequence (looked up): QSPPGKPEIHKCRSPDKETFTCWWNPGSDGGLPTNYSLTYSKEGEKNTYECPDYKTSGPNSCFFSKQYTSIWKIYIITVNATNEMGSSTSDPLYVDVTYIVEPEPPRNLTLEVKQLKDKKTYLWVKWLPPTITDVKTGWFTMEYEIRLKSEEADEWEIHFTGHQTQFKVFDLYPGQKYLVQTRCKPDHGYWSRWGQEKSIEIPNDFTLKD

T7: cyno PRLR (Biacore antigen) (cyno, UniProt A0A2K5WXK1 25-234)
T7 construct: also called cyPRLR
T7 sequence: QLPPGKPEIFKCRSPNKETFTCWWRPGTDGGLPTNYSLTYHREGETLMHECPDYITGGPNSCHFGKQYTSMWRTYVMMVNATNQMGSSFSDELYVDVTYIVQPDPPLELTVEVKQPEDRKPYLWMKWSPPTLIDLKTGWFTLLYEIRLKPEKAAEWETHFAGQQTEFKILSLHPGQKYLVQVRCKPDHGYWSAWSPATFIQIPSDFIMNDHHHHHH

T8: rat PRLR on Nb2-11 rat lymphoma cells (rat, UniProt P05710 20-610)
T8 sequence (looked up): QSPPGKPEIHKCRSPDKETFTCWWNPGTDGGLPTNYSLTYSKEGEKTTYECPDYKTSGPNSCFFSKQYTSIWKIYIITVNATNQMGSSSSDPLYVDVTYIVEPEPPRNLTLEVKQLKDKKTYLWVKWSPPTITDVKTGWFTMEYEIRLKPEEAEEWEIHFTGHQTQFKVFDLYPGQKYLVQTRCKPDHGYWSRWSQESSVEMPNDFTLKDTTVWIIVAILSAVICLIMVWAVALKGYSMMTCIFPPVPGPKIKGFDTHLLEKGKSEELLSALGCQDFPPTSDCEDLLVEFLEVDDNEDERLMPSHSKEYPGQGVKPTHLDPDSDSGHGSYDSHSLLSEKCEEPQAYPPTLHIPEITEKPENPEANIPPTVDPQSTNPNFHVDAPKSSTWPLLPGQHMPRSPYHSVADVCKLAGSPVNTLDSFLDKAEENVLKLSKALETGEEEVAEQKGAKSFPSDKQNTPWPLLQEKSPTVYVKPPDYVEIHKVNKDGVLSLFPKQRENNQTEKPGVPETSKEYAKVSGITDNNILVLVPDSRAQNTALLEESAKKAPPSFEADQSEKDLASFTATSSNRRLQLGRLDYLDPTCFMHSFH

T9: cyno PRLR ECD-his6 protein (cyno)
T9 chain: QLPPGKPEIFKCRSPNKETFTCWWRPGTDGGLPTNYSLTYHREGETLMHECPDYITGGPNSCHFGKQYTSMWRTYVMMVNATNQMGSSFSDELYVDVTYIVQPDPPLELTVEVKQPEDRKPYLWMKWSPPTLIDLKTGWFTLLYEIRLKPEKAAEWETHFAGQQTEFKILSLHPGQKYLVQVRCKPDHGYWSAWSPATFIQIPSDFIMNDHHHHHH


Key:
[1] = target: T1, rat PRLR ECD-Fc fusion protein; experiment: ELISA on ECD
Description: (§1) Plates were blocked for 1 hour with Superblock (Pierce) and washed (3×) with wash buffer (lx PBS (pH 7.4), 0.05% Tween 20). ECD proteins were bound to the appropriate antibody (1 hour) in binding buffer (wash buffer plus 10% Superblock), washed (3×, wash buffer), and then incubated with serial dilutions of antibodies (1 hour) in binding buffer. After washing (3×, wash buffer), secondary antibodies conjugated to HRP were bound (1 hour) in binding buffer, washed (3×, wash buffer), and incubated with TMB substrate (Pierce) to develop signal for 3-5 minutes, stopped with 2N H₂SO₄ and scanned at […]. Curves were fit with GraphPad 5 (Prizm) and EC50's were determined with curve fitting function of GraphPad 5.

[2] = target: T2, human PRLR ECD-Fc fusion protein; experiment: ELISA on ECD
Description: as §1

[3] = target: T3, mouse PRLR ECD-Fc fusion protein; experiment: ELISA on ECD
Description: as §1

human PRLR on cells [4] = target: T4, human PRLR on cells; experiment: cell-based or functional assay
[5] = target: cyno PRLR on Baf3-cyPRLR cells (cyno); experiment: cell-based or functional assay
human PRLR on cells [6] = target: T4, human PRLR on cells; experiment: FACS T47D 10 ug/mL
[7] = target: T5, human PRLR (Biacore antigen); experiment: SPR Biacore
Procedure, shortened: (§2)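 Association rate, dissociation rate and dissociation constant were measured by surface plasmon resonance on a Biacore instrument. PRLR antigen was tested at 600 nM, 66.67 nM and 7.41 nM, a 3-point, 9-fold dilution series. Constants came from a 1:1 binding model fit (local Rmax, mass-transport term included) in Biacore T200 Evaluation Software.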

[8] = target: T6, murine PRLR (Biacore antigen); experiment: SPR Biacore
Procedure, shortened: as §2

[9] = target: T7, cyno PRLR (Biacore antigen); experiment: SPR Biacore
Procedure, shortened: as §2

[10] = target: T8, rat PRLR on Nb2-11 rat lymphoma cells; experiment: cell-based or functional assay
[11] = target: T9, cyno PRLR ECD-his6 protein; experiment: ELISA on ECD
Description: as §1

| Binder | EC50 [1] [nM] | EC50 [2] [nM] | EC50 [3] [nM] | Baf3-hPRLR proliferation IC50 (human PRLR on cells [4]) [µg/mL] | T47D pPRLR ELISA IC50 (human PRLR on cells [4]) [µg/mL] | Baf3-cyPRLR proliferation IC50 [5] [µg/mL] | FACS GeoMean-neg (human PRLR on cells [6]) | Kd [7] [nM] | koff [7] [s⁻¹] | kon [7] [M⁻¹ s⁻¹] | Kd [8] [nM] | koff [8] [s⁻¹] | kon [8] [M⁻¹ s⁻¹] | Kd [9] [nM] | koff [9] [s⁻¹] | kon [9] [M⁻¹ s⁻¹] | Nb2-11 proliferation IC50 [10] [µg/mL] | EC50 [11] [nM] |
| --- | --- | --- | --- | --- | --- | --- | --- | --- | --- | --- | --- | --- | --- | --- | --- | --- | --- | --- |
| Ab8 (antibody, V domains shown, murine monoclonal, isotype G2b; also called murine Ab8) VH: EVQLQQSGPELVKPGASVKISCKASGYTFTDYNIHWVKQSHGKSLEWIGYIYPNNDGTGYNQKFKSKATLTVDNSSSTAYMEVRSLTSEDSAVYYCARGDGNYVGDMDYWGQGTSVTVSS VL: DIQMTQSPASLSASVGETVTITCRASENIYSYLAWYQQKQGKPPQLLVYNAKTLAEGVPSRFSGGGSGTQFSLKINSLQPEDFGSYYCQHHYATPFTFGSGTKLEIK | 0.205 | 0.098 | 0.342 | 1.15 | 0.219 | 1.64 | 1530 | 0.153 | 8.19e-05 | 536000 | 259 | 0.0466 | 180000 | 2.2 | 0.00116 | 526000 |  |  |
| chAb12 (antibody, human IgG1, kappa, V domains shown) VH: DVQLQESGPGLVKPSQSLSLTCTVTGYSITSDYAWNWIRQFPGNKLEWMGYIGYSGRTSFNPSLKSRISITRDTSKNQFFLQLNSVTTEDTATYYCARGGFAMDYWGQGTSVTVSS VL: QIVLTQSPGIMSASPGEKVTMTCSASSSVTYMYWYQQKPRSSPKPWIYLTSNLASGVPARFSGSGSGTSYSLTISSMEAEDGATYYCQQWSSTPPLTFGGGTKLELNT |  |  |  | 10.7 |  | > 10 |  |  |  |  |  |  |  |  |  |  | 41.4 |  |
| Ab28 (antibody, human IgG1, kappa, humanized from Ab5; G1; also called Ab2 HC.1 and Ab2 LC.1b) heavy: not shown light: DVVMTQTPLSLSVTPGQPASISCRSSQRLVHSNGNTYLHWYLQKPGQSPQLLIYKVSNRFSGVPDRFSGSGSGTDFTLKISRVEAEDVGVYYCSQSTHVPWTFGGGTKVEIKRTVAAPSVFIFPPSDEQLKSGTASVVCLLNNFYPREAKVQWKVDNALQSGNSQESVTEQDSKDSTYSLSSTLTLSKADYEKHKVYACEVTHQGLSSPVTKSFNRGEC | 0.416 |  | 0.292 | 0.22 |  | 0.31 |  |  |  |  | 52 | 0.00606 | 117000 | 1.97 | 0.000619 | 315000 |  | 0.0965 |
| Ab29 (antibody, human IgG1, kappa, humanized from Ab5; G1; also called Ab HC.1a and Ab2 LC.1) heavy: not shown light: DIVMTQTPLSLSVTPGQPASISCRSSQRLVHSNGNTYLHWYLQKPGQSPQLLIYKVSNRFSGVPDRFSGSGSGTDFTLKISRVEAEDVGVYYCSQSTHVPWTFGGGTKVEIKRTVAAPSVFIFPPSDEQLKSGTASVVCLLNNFYPREAKVQWKVDNALQSGNSQESVTEQDSKDSTYSLSSTLTLSKADYEKHKVYACEVTHQGLSSPVTKSFNRGEC | 0.689 | 0.269 | 0.238 | 0.15 |  | 0.23 |  | 1.79 | 0.00056 | 313000 | 53 | 0.00634 | 120000 | 2.24 | 0.000675 | 301000 |  | 0.153 |
| Ab27 (antibody, human IgG1, kappa, V domains shown, humanized from Ab5; G1; also called Ab2 HC.1 and Ab2 LC.1a) VH: EVQLVQSGAEVKKPGSSVKVSCKASGYTFTSFWMHWVRQAPGQGLEWMGVIDPSDTYTNYNQKFKGRVTITADESTSTAYMELSSLRSEDTAVYYCARGDYSNWFTYWGQGTLVTVSS VL: DVVMTQTPLSLSVTPGQPASISCRSSQRLVHSNGNTYLHWYLQKPGQSPQLLIYKVSNRFSGVPDRFSGSGSGTDFTLKISRVEAEDVGVYFCSQSTHVPWTFGGGTKVEIKR | 0.125 | 0.17 | 0.185 | 0.16 |  | 0.22 |  | 1.25 | 0.000443 | 356000 | 38.3 | 0.00512 | 134000 | 1.56 | 0.00052 | 333000 |  | 0.102 |
| Ab31 (antibody, human IgG1, kappa, humanized from Ab5; G1; also called Ab2 HC.1a and Ab2 LC.1b) heavy: not shown light: DVVMTQTPLSLSVTPGQPASISCRSSQRLVHSNGNTYLHWYLQKPGQSPQLLIYKVSNRFSGVPDRFSGSGSGTDFTLKISRVEAEDVGVYYCSQSTHVPWTFGGGTKVEIKRTVAAPSVFIFPPSDEQLKSGTASVVCLLNNFYPREAKVQWKVDNALQSGNSQESVTEQDSKDSTYSLSSTLTLSKADYEKHKVYACEVTHQGLSSPVTKSFNRGEC | 0.718 | 0.453 | 0.333 | 0.17 |  | 0.39 |  | 1.67 | 0.000537 | 322000 | 55.7 | 0.00682 | 122000 | 2.08 | 0.000643 | 310000 |  | 0.256 |

From patent publication US20170022281A1 (AbbVie / Abbott, published 2017)
